Here are results for 1 protein from US20230258640.

This series addresses T1, TCPP-labelled peptide cleavage sequence for MMP-1 (GAGVPMS-MRGGAG) tethered to carboxygraphene-polyethylenimine.
T1 chain: GAGVPMSMRGGAG

B1: Matrix-Metalloproteinase-1 (protein)
chain: FVLTEGNPRWEQTHLTYRIENYTPDLPRADVDHAIEKAFQLWSNVTPLTFTKVSEGQADIMISFVRGDHRDNSPFDGPGGNLAHAFQPGPGIGGDAHFDEDERWTNNFREYNLHRVAAHELGHSLGLSHSTDIGALMYPSYTFSGDVQLAQDDIDGIQAIYGRSQNPVQPIGPQTPKACDSKLTFDAITTIRGEVMFFKDRFYMRTNPFYPEVELNFISVFWPQLPNGLEAAYEFADRDEVRFFKGNKYWAVQGQNVLHGYPKDIYSSFGFPRTVKHIDAALSEENTGKTYFFVANKYWRYDEYKRSMDPGYPKMIAHDFPGIGHKVDAVFMKDGFFYFFHGTRQYKFDPKTKRILTLQKANSWFNCRKN
On to B1, for which the “estimated limit of detection (LOD)” value is given as “femtomolar protease activities can be detected” and the “fluorescence signal of released TCPP after 60 min incubation at 37 C” value was “the intensity of the detected signal is proportional to concentration of enzyme”.
